The values below come from patent US20080124327A1 (published 2008).

The experiment addresses T1, Recombinant human CD44/Fc (R&D Systems, Minneapolis, Minn., USA) (human, UniProt P16070 21-220).
T1 construct: Purchased reagent, amine-coupled to a CM5 chip at about 500 RU; also called rhCD44; recombinant CD44; not shown: Fc part of the purchased fusion
Nature of the experiment: SPR (Biacore T100); rhCD44/Fc amine-coupled to a CM5 chip, antibody injected at 0.67 to 667 nM, 1:1 model. A general note: SPR reads the build-up and loss of mass on a sensor chip optically.

T1 sequence (P16070 21-220): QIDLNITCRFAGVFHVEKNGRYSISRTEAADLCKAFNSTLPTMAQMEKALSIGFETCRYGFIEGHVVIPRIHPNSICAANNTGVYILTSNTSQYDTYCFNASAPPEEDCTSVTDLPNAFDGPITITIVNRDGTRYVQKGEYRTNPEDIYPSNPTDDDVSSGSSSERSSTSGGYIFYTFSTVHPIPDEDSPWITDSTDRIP

B1: (hu)ARH460-16-2 variant HV1/KV1 (antibody, V domains shown)
VH: EVQLVESGGGLVQPGGSLRLSCAASGFDFSRYWMSWVRQAPGKGLVWVGEVNPDSTSINYTPSLKDRFTISRDNAKNTLYLQMNSLRAEDTAVYYCTRPNYYGSRYHYYAMDYWGQGTLVTVSS
VL: DIQMTQSPSSLSASVGDRVTITCRASQDINNYLNWYQQKPGKAPKLLIYYTSRLHSGVPSRFSGSGSGTDFTFTISSLQPEDIATYYCQQGSTLPFTFGQGTKLEIK
notes: Humanized variable regions cloned into pANT18 (human IgG1 constant region, human kappa constant region); also called (hu)ARH460-16-2 variant 1; huARH460-16-2-variant 1
As a reminder, the Kd is the equilibrium constant for the complex coming apart. Take B1: the Kd is 6.32 nM.

B2: H460-16-2 (murine monoclonal antibody produced by the hybridoma deposited with the ATCC as accession number PTA-4621) (antibody, V domains shown)
VH: EVKLLESGGGLVQPGGSLKLSCATSGFDFSRYWMSWVRQAPGKGLEWIGEVNPDSTSINYTPSLKDQFIISRDNAKNTLDLQMSKVSSEDTALYYCTRPNYYGSRYHYYAMDYWGQGTSVTVSS
VL: DIQMTQTTSSLSVSLGDRVTINCRASQDINNYLNWYQQKPDGTVKLLIYYTSRLHSGVPSRFSGSGSGTDFSLTISNLEKEDVATYFCQQGSTLPFTFGSGTKLEIK
For the molecule B2, the dissociation constant (Kd) came out at 4.19 nM.
